Reference: article PMC4452151 (Cancer Science, 2015)

Experiments:
CD3 on T cells = CD3 on T cells (Homo sapiens (endogenous, Jurkat cells …, UniProt P07766)); experiment: flow cytometry on cells
[1] = target: recombinant human CD138 protein (Homo sapiens (Human)., UniProt P18827, biotin (in the bio-layer interferometry experiment only)); experiment: BLI
Chain of recombinant human CD138 protein (P18827 23-254): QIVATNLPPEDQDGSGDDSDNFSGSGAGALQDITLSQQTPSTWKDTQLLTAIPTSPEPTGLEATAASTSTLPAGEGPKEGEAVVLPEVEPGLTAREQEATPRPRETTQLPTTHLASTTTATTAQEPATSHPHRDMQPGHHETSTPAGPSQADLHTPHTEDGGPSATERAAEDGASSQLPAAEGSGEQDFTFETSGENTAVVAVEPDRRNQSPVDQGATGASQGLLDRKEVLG

Chain of CD3 on T cells (Homo sapiens (P07766 23-207): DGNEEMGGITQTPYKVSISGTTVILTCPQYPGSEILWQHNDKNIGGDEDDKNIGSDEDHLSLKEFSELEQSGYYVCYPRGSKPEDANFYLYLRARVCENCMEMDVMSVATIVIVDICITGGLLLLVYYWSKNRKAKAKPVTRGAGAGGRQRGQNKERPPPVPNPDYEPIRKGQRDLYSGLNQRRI

binding result (CD3 on T cells): no binding (tested: 10 μg/mL)
Kd [1]: 13.5 nM
B1: aCD138-ScFv-hIgFc (scFv, V domains shown)
VH: QVQLQQSGSELMMPGASVKISCKATGYTFSNYWIEWVKQRPGHGLEWIGEILPGTGRTIYNEKFKGKATFTADISSNTVQMQLSSLTSEDSAVYYCARRDYYGNFYYAMDYWGQGTSVTVSS
VL: DIQMTQSTSSLSASLGDRVTISCSASQGINNYLNWYQQKPDGTVELLIYYTSTLQSGVPSRFSGSGSGTDYSLTISNLEPEDIGTYYCQQYSKLPRTFGGGTKLEIK
